Molecular target: S-protein of WT SARS-CoV-2 (S-trimer) used in BLI (SARS-CoV-2 wildtype, UniProt P0DTC2, stabilised)
Test: BLI

B1: R1-26 (mAb, human IgG1) (antibody, V domains shown)
VH: EVQLVESGGGLVQPGGSLRLSCAASGFTFSSYWMSWVRQAPGKGLEWVANIKQDGSEKYYVDSVKGRFTISRDNAKNSLYLQMNSLRAEDTAVYYCARGQLGPWVGVDYWGQGTLVTVSS
VL: NFMLTQPHSVSESPGKTVTISCTGSSGSIASNYVQWYQQRPGSAPTTVIYEDNQRPSGVPDRFSGSIDSSSNSASLTISGLKTEDEADYYCQSYDSSNWVFGGGTQLTVL
  binding result: binds

From paper doi:10.1101/2023.10.12.561995 (bioRxiv, 2023)
